The text below walks through data of patent US20240279345A1, “ALPHA 5 BETA 1 INTEGRIN BINDING AGENTS AND USES THEREOF” (PASITHEA THERAPEUTICS CORP., priority 2021, published 2024).

Assay [1] has as its target T1, binding of α5β1 integrin to fibronectin (FN) (Homo sapiens, UniProt P05556+P08648).
T1 construct: purchased Acro Biosystems IT1-H52W5
The assay is described as follows: Quantitative FN inhibition (FN-blocking) assay in ELISA format. The format is biochemical. The settings on record: by ELISA. The text has this: To determine whether the 9 unique hybridoma clones selected as described in Example 4 were able to inhibit the binding of α5β1 integrin to fibronectin (FN), the antibodies were first purified from hybridoma supernatants by Protein A chromatography, protein concentrations measured by BCA assay (Pierce™ BCA Protein Assay Kit; Thermo Fisher Scientific, Waltham, MA, cat. no. 23225) and then tested in a quantitative FN inhibition assay in an ELISA format.
Immulon4 HBX ELISA 96-well plates were coated with FN by incubation overnight at 4° C. with 2.5 μg/mL human FN (R&D Systems, Minneapolis, MN 55413, cat. no. 1918-FN) in 1×PBS (0.01M phosphate buffer and 0.154M NaCl, pH 7.4). Plates were then washed 3 times with Wash Buffer (1× Tris Buffered Saline containing 0.05% Tween20), blocked with 2% BSA in 1×TBS for 2 hours at room temperature (RT). Antibodies were diluted in Standard Diluent (2% BSA, 1×TBS, 0.05% Tween20) containing 0.1 μg/mL rh-α5β1-6×His tagged protein (Acro Biosystems, Newark, DE, cat. no. IT1-H52W5), to generate an 11 point 1:3 antibody dilution series ranging from 10,000 ng/mL to 0.17 ng/mL. Isotype control antibody (Control Ab; Ms IgG2a EMD Millipore Corp, Billerica, MA, cat. no. PP102) was used to normalize data across different assay runs. For the assays, 100 uL of the antibody dilution series/His-tagged-α5β1 mixture was added to the wells after the blocking solution was removed and wells were washed 3 times. Following 1 hour at RT, the wells were washed 3 times, incubated with biotinylated Anti-6×His-Tag Ab (Invitrogen, Carlsbad, CA, cat. no. MAI-21315-BTIN) at 1:1000 in Standard Diluent for 1 hour, washed 3 times, incubated for 30 minutes with poly-HRP Streptavidin (Thermo Fisher Scientific, Waltham, MA, cat. no. N200), washed 4 times, incubated with TMB substrate (Thermo Fisher Scientific, Waltham, MA, cat. no. N301) for 2-5 minutes, followed by addition of ELISA Stop Solution (Invitrogen, Carlsbad, CA, cat. no. SS04). Absorbance 450 nm was measured. Data points were normalized to the isotype Control Ab values at each concentration and reported as % Absorbance 450 nm normalized to Control Ab. Non-linear regression analysis was used to fit curves (4-parameter) to the data using GraphPad Prism version 9.0.2 (GraphPad Software, LLC, San Diego, CA).
Freeze-thaw stability was tested on a small aliquot of each chimera antibody by overnight storage at −80° C. followed by thaw on ice, repeated three times. […] IC50s were calculated by non-linear regression analysis curve-fitting (4-parameter) of the ELISA data (FIG. 5) using GraphPad Prism version 9.0.2 (GraphPad Software, LLC, San Diego, CA). […]
(ELISA stands for enzyme-linked immunosorbent assay.)

The target of assay [2] is T2, rh-α5β1 in active conformation (binding to 12G10) (Homo sapiens, UniProt P05556+P08648).
T2 construct: purchased Acro Biosystems IT1-H52W5
The assay can be described thus: 12G10 conformation assay (α5β1 integrin binding to 12G10). The settings on record: 0.5 mM MnCl2. As to the method: A Nunc MaxiSorp Flat-Bottom 96-well plate (Invitrogen, Waltham, MA, cat. no. 44-2404-21) was coated with 12G10 antibody at 2 μg/mL in 0.2M carbonate-bicarbonate buffer, pH9.4 (Thermo Scientific, Rockford, IL, cat. No. 28382) by incubation overnight at 4° C. Plates were then washed 3 times with Wash Buffer (1× Tris Buffered Saline containing 0.05% Tween20), then blocked with 2% BSA in 1×TBS for 2 hours at room temperature (RT). The human IgG4 chimeric versions of the antibodies were diluted in Standard Diluent (2% BSA, 1×TBS, 0.05% Tween20) containing 0.05 μg/mL rh-α5β1-6×His tagged protein (Acro Biosystems, Newark, DE, cat. no. IT1-H52W5) and 0.5 mM MnCl2 (TEKnova, Hollister, CA, cat. no. M0350) to generate a 7 point 1:5 antibody dilution series ranging from 10,000 ng/mL to 0.64 ng/mL. In addition to human IgG4 chimeric antibodies A-15B08, C-14D12 and A2-7A05, three other antibodies tested included IgG4 isotype control (human IgG4, Kappa, anti-fluorescein Ab00102-13.0, Absolute Antibody, Wilton, UK), anti-integrin alpha-5 clone SNAKA51 (MilliporeSigma, St. Louis, MO, cat. no. MABT201) known to induce integrin alpha-5 into an active conformation, and finally the 12G10 antibody itself which can directly compete with the 12G10 bound to the MaxiSorp plate. For the assays, 100 μL of the antibody dilution series, His-tagged-α5β1 mixture was added to the wells after the blocking solution was removed and wells were washed 3 times. […] Absorbance 450 nm was measured. Data points were normalized to the absorbance of the well containing no antibody for each dilution series and reported as Percent Binding. […]

T1 sequence (P08648 42-894 limits assumed): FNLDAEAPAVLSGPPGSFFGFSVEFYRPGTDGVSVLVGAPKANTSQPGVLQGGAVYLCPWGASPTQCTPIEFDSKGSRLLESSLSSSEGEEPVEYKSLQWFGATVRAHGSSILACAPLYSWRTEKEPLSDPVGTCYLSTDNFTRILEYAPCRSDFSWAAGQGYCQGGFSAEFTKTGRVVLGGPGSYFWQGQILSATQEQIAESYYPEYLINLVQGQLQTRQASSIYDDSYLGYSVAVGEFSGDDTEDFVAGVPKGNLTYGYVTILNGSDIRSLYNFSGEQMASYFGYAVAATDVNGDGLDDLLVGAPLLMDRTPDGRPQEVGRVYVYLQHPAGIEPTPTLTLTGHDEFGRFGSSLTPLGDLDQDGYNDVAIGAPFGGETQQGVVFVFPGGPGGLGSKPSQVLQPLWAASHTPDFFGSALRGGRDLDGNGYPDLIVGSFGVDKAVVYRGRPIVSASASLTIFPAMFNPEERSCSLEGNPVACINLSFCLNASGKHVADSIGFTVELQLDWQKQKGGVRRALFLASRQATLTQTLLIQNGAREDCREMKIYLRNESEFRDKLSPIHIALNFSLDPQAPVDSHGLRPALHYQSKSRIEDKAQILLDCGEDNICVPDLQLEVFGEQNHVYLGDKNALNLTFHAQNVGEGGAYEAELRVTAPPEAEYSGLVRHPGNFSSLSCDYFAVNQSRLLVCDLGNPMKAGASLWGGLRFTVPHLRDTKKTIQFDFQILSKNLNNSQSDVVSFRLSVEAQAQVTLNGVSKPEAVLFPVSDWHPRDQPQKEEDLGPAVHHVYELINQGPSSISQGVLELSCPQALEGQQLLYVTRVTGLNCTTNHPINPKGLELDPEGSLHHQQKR
T1 sequence (P08648 895-995 limits assumed): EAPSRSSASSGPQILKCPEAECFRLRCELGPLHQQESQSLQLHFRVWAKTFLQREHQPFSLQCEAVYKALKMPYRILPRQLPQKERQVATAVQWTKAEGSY
T1 sequence (P05556 21-728 limits assumed): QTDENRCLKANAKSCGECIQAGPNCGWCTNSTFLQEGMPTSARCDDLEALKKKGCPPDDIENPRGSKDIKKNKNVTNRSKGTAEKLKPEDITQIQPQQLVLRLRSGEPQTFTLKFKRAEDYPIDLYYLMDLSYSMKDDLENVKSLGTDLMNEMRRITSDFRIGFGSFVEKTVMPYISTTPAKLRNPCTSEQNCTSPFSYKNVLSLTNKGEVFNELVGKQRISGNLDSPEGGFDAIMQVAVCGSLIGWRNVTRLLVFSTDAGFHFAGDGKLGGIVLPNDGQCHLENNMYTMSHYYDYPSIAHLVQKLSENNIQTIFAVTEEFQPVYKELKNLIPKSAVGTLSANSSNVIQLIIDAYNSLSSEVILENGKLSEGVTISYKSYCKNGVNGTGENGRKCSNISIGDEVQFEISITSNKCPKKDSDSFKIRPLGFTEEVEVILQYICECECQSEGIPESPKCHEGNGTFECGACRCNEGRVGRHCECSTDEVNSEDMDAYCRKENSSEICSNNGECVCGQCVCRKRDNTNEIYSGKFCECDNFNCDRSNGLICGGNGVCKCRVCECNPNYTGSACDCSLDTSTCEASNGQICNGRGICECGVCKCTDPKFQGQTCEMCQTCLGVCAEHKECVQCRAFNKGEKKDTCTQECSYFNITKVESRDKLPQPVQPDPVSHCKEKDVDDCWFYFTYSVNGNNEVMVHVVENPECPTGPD
T2 sequence (P08648 42-894 limits assumed): as the sequence (P08648 42-894 limits assumed) above
T2 sequence (P08648 895-995 limits assumed): as the sequence (P08648 895-995 limits assumed) above
T2 sequence (P05556 21-728 limits assumed): as the sequence (P05556 21-728 limits assumed) above

B1: A-15B08: anti-α5β1 antibody, VH SEQ ID NO:25, VL SEQ ID NO:26; tested as mouse hybridoma antibody and as human IgG4 chimera (antibody, V domains shown)
VH: QVQLKESGPGLVAPSQSLSITCTISGFSLTSYGVHWVRQPPGKGLEWLVVIWSDGSTTYNSTLKSRLSISKDNSKSQVFFKMNSLQTDDTAMYYCARHYDYDGDWFAYWGQGTLVTVSA
VL: QIVLTQSPAIMSASLGERVTMTCTASSRVSSNSLHWYQQKPGSSPKLWIYSTSNLASGVPARFSGSGSGTSYSLTISSMEAEDAATYYCHQYLRSPPTFGGGTKLEIK
modifications: A-15B08 VH Sequence; A-15B08 VL Sequence
notes: tested as mouse hybridoma antibody and as human IgG4 chimera
Regarding B1, the “class of FN binding blocker” value in assay [1] is “strong blockers of FN binding”. Moreover, the “reduction of α5β1 integrin binding to 12G10” value in assay [2] (human IgG4 chimeric antibodies) was “approximately 50%”.

B2: A2-7A05: anti-α5β1 antibody, VH SEQ ID NO:77, VL SEQ ID NO:78; tested as mouse hybridoma antibody and as human IgG4 chimera (antibody, V domains shown)
VH: QVQLQQPGAELVKPGASVKLSCKASGYTFTIYWINWVKQRPGQGLEWIGKIYPGSISTDYNEKFKSKATLTVDTSSSTAYMQLSSLTSDDSAVYYCAITGTGGLAYWGQGTLVTVSA
VL: ENVLTQSPAIMSASLGEKVTMTCRASSSVNYMYWYQQKSDASPKLWIYFTSSLAPGVPGRFSGSGSGNSYSLTISTMEGEDAATYYCQQFTTSPFTFGSGTKLEIK
modifications: A2-7A05 VH Sequence; A2-7A05 VL Sequence
notes: as for B1
With B2, the “class of FN binding blocker” value in assay [1] was “partial blocker of FN binding”. Moreover, in assay [2] (dilution series 10,000 to 0.64 ng/mL), the “effect on α5β1 integrin binding to 12G10” value is “did not reduce α5β1 integrin binding to 12G10”.
